# In the supplement of paper PMC10126150:
# ± gives the standard deviation of the averaged measurements.
# Test system: ATP
# Test: switch fluorescence ratio, 500 uM ATP over buffer (Cy3 cluster intensity, sum of 5 cycles each) (fold (ratio)); higher = stronger signal-on switching upon ATP binding; sequences stand for … in TCGTCGGCAGCGTCAGATGTGTATAAGAGACAGTTTTTTTTTTTTTTTTTTTTTTTTT…TC
# Settings: aptamer strand: ATP DNA aptamer (quencher-CACCTGGGGGAGTATTGCGGAGGAAGG + anchor), 100 nM annealed; ATP concentration: 500 uM
# Outline: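 Imaging in selection buffer was followed by imaging after 15 min with 500 uM ATP at 22 °C, for Cy3-labelled switching-strand clusters annealed to 100 nM quencher-labelled ATP aptamer on a modified Illumina MiSeq flow-cell. Five of these buffer/ATP cycles ran, separated by NaOH stripping and re-annealing. The fluorescence ratio per cluster is summed target-cycle over summed buffer-cycle Cy3 intensity, averaged per switch-domain sequence; clusters outside 100-1000 RFU were removed.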
# 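Further: ATP exposure 15 min at 22 °C before imaging.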
row,Sequence,switch fluorescence ratio
1,CCGTTGTGCG,1.02 ± 0.027
2,AGAGCTGGGT,1.02 ± 0.02
3,TACCATGGTT,0.9841 ± 0.0061
4,TTTTAGTAGC,1.04 ± 0.0058
5,TGAAGCATCC,1.822 ± 0.0073
6,TTGGAATTTA,1 ± 0.016
7,ACGTTTGGCT,0.954 ± 0.028
8,GGTGTTTCGT,0.9735 ± 0.001
9,GGGTTACGGG,1.008 ± 0.0045
10,TTTTGCGAAT,0.996 ± 0.018
11,CTGCGGGGAT,1.02 ± 0.027
12,GAATTTTGGG,1 ± 0.032
13,TGGTTATGTT,1.02 ± 0.023
14,GAATGTAGCA,1.03 ± 0.011
15,AATCATTCCG,1.07 ± 0.041
16,GGTACGGAAA,1.02 ± 0.016
17,GCGGTTCCTC,1.05 ± 0.027
18,GGGGAGTGCA,1 ± 0.035
19,GCTGGTCATG,0.989 ± 0.018
20,ATGTAAAGAC,1.05 ± 0.04
21,TGCGGGGGTT,1.02 ± 0.03
22,GGGAAACCAC,1.04 ± 0.02

row,Sequence,switch fluorescence ratio
1,GATAGGGCAA,1.08 ± 0.075
2,GACACGAGGT,1.013 ± 0.0084
3,ATTGTGCTTT,1.04 ± 0.024
4,CACCTAGGCT,1.055 ± 0.0048
5,TGACTGTTTG,0.984 ± 0.04
6,TTGTGTGGGG,1.01 ± 0.034
7,TGGTTACATG,1.02 ± 0.014
8,TTTGTGGCGT,0.984 ± 0.023
9,GGTGAGAAAT,1.01 ± 0.04
10,GTGGGGAGCG,0.994 ± 0.029
11,ATGGAGGGAC,1.48 ± 0.66
12,AAGGTTGCGG,1 ± 0.037
13,AAAGAAATTG,1.01 ± 0.035
14,AGCTTAGGGA,0.99 ± 0.036
15,GGGATGCAGA,1.05 ± 0.0076
16,ATCCGGTTAT,1.03 ± 0.016
17,AATGTGCCGT,1.07 ± 0.04
18,AAAGAGGAGA,1.02 ± 0.023
19,TTCTAAGGTC,0.978 ± 0.036
20,TTCAATAGGA,1.03 ± 0.045
21,ATGGGGTCTG,1.05 ± 0.095
22,TTGACAGGCA,0.968 ± 0.012

row,Sequence,switch fluorescence ratio
1,TATAAGGAGT,1.01 ± 0.044
2,AAAAGTATAC,1.06 ± 0.072
3,AGAGTTATTG,0.998 ± 0.018
4,ATTAAGTTTC,0.9675 ± 0.0012
5,ACCGAGTTCT,0.99 ± 0.057
6,ACGGGTAGGG,1.05 ± 0.035
7,CCCTCGCGGT,1.78 ± 0.027
8,AAACTGTAAT,1.08 ± 0.017
9,AATTGCCAGA,1.02 ± 0.02
10,GGTCTGGTGC,1.031 ± 0.0048
11,GCTCAAGCCT,1.06 ± 0.028
12,AGATATACGG,1.02 ± 0.034
13,GATCTGGACA,1.01 ± 0.032
14,TTTGTTATGT,0.988 ± 0.019
15,CGGTTGGGGC,1.11 ± 0.057
16,ATTTTTTGCG,1 ± 0.028
17,GGGCTGGAGG,0.983 ± 0.025
18,TCTGGTGAAA,1.02 ± 0.054
19,ATCGAGAGGG,1.01 ± 0.04
20,CGATTATGTA,0.9667 ± 0.0078
21,GACACGGGGA,1.01 ± 0.041
22,TCGCGCGGAG,1.04 ± 0.024

row,Sequence,switch fluorescence ratio
1,ACTTGGTGGG,0.986 ± 0.049
2,GTACCCTATG,1.07 ± 0.029
3,TACTGATAGG,1.0161 ± 0.00099
4,CGAAGGGGGA,0.995 ± 0.021
5,ACTTTCCACA,1.17 ± 0.027
6,AACTTTATTT,0.992 ± 0.018
7,GTAGTGGGGT,0.987 ± 0.016
8,AAAGGCATGT,1.04 ± 0.017
9,GTTTGTTGGT,0.977 ± 0.013
10,CTTGGGTGAA,1.09 ± 0.19
11,GGCATGTTTG,0.9917 ± 0.0027
12,TGCTGGCATG,0.967 ± 0.014
13,GGGATGTGGG,1 ± 0.013
14,TATACGGGGC,1.01 ± 0.027
15,TACGGTGTGG,0.989 ± 0.04
16,AGATTGAATG,0.97975 ± 0.00032
17,GAAAGTAGGA,1.02 ± 0.029
18,TTGTGATCGG,0.978 ± 0.03
19,TGGCGAACGG,1.01 ± 0.052
